± gives the uncertainty stated by the source.
Assay: self-splicing fitness, log relative to wild type (ln ratio); higher = more splicing; Tetrahymena group I intron in knt gene, E. coli kanamycin selection, DiMSum; sequences stand for … in CUCUCU…GGAGGGAAAAGUUAUCAGGCAUGCACCUGGUAGCUAGUCUUUAAACCAAUAGAUUGCAUCGGUUUAAAAGGCAAGACCGUCAAAUUGCGGGAAAGGGGUCAACAGCCGUUCAGUACCAAGUCUCAGGGGAAACUUUGAGAUGGCCUUGCAAAGGGUAUGGUAAUAAGCUGACGGACAUGGUCCUAACCACGCAGCCAAGUCCUAAGUCAACAGAUCUUCUGUUGAUAUGGAUGCAGUUCACAGACUAAAUGUCGGUCGGGGAAGAUGUAUUCUUCUCAUAAGAUAUAGUCGGACCUCUCCUUAAUGGGAGCUAGCGGAUGAAGUGAUGCAACACUGGAGCCGCUGGGAACUAAUUUGUAUGCGAAAGUAUAUUGAUUAGUUUUGGAGUACUCGUGGUCG
Procedure, shortened: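 The eight P1ex-region nucleotides of an intron in the knt kanamycin-resistance gene on pET-22b(+) were all randomised and the library put into E. coli BL21(DE3). Six replicate transformations were grown overnight at 37°C or 30°C on LB agar with or without 25 μg/mL kanamycin, together with 100 μg/mL carbenicillin, 50 μM IPTG and 0.2% rhamnose. Colonies were pooled and amplicon-sequenced on an Illumina HiSeq 2500. Fitness from DiMSum is the error-weighted combination of wild-type-normalised replicate fold changes, kanamycin over none.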

Sequence	self-splicing fitness (ln) (30 °C)	self-splicing fitness (ln) (37 °C)
UCCCAGCAAUAUUACGGGGA	-3.53 ± 0.17	-2.43 ± 0.16
CCAGAGCAAUAUUACGAACC	-2.33 ± 0.28	-1.77 ± 0.38
GGCAAGCAAUAUUACGAGCU	-2.69 ± 0.18	-1.67 ± 0.23
UGCAAGCAAUAUUACGGUGA	-0.55 ± 0.068	0.00833 ± 0.086
UGUGAGCAAUAUUACGAGGG	-3.77 ± 0.3	-3.54 ± 0.42
UGUAAGCAAUAUUACGAGGA	-2.17 ± 0.36	-2.61 ± 0.34
CACGAGCAAUAUUACGGUGC	-3.91 ± 0.37	-2.76 ± 0.28
AUAAAGCAAUAUUACGCUAA	-0.787 ± 0.11	-0.736 ± 0.14
CCGAAGCAAUAUUACGAGAU	-3.31 ± 0.17	-2.43 ± 0.21
CGAAAGCAAUAUUACGGACA	-0.806 ± 0.074	0.186 ± 0.091
AACUAGCAAUAUUACGGGGU	-3.93 ± 0.3	-2.34 ± 0.18
CCGAAGCAAUAUUACGGGUA	-4.26 ± 0.3	-2.35 ± 0.22
AAGAAGCAAUAUUACGGCGU	0.0118 ± 0.086	0.334 ± 0.11
AUCAAGCAAUAUUACGGGUG	-1.4 ± 0.088	-0.416 ± 0.087
GCCGAGCAAUAUUACGAUAU	-2.51 ± 0.12	-1.46 ± 0.11
AUGUAGCAAUAUUACGUUCG	-0.997 ± 0.095	-0.356 ± 0.12
UUAGAGCAAUAUUACGAUAC	-2.36 ± 0.36	
CGCCAGCAAUAUUACGACGU	-1.71 ± 0.076	-1.5 ± 0.094
AUAAAGCAAUAUUACGAGGG	-3.4 ± 0.15	-1.64 ± 0.12
AAAGAGCAAUAUUACGUAAC	-3.77 ± 0.31	-2.88 ± 0.43
AAACAGCAAUAUUACGAACG	-2.5 ± 0.12	-0.625 ± 0.12
UAACAGCAAUAUUACGAAUA	-0.62 ± 0.1	-0.528 ± 0.1
AACCAGCAAUAUUACGAUUC	-1.63 ± 0.071	-0.153 ± 0.084
GUGUAGCAAUAUUACGCAUA	-2.5 ± 0.21	-1.31 ± 0.19
CGGUAGCAAUAUUACGGCAA	-2.22 ± 0.19	-2.52 ± 0.28
UCGAAGCAAUAUUACGAUAG	-2.95 ± 0.25	-1.14 ± 0.18

Sequence	self-splicing fitness (ln) (30 °C)	self-splicing fitness (ln) (37 °C)
CUGUAGCAAUAUUACGAGGA	-2.78 ± 0.41	-1.62 ± 0.32
AUUUAGCAAUAUUACGUGUG	-2.36 ± 0.11	-1.44 ± 0.11
UACCAGCAAUAUUACGGAAG	-3.5 ± 0.24	-1.57 ± 0.16
ACCCAGCAAUAUUACGAUCG	-1.92 ± 0.073	-0.696 ± 0.096
UUACAGCAAUAUUACGAAGG	-3.54 ± 0.31	-1.3 ± 0.23
UGAGAGCAAUAUUACGGUCU		-2.37 ± 0.36
CGCCAGCAAUAUUACGCUCU	-1.6 ± 0.081	-1.06 ± 0.097
AAGGAGCAAUAUUACGCAAG	-1.2 ± 0.38	-1.45 ± 0.49
ACGAAGCAAUAUUACGUGAC	-3.87 ± 0.26	-1.12 ± 0.17
ACAUAGCAAUAUUACGAUGU	-3.82 ± 0.16	-2.19 ± 0.16
AUUAAGCAAUAUUACGUUCU	-0.566 ± 0.064	0.034 ± 0.086
ACGCAGCAAUAUUACGUCGU	-3.77 ± 0.26	-1.6 ± 0.21
GGCGAGCAAUAUUACGAUUA	-2.12 ± 0.22	-1.44 ± 0.17
UGGAAGCAAUAUUACGCUGG	-1.74 ± 0.12	-1.26 ± 0.14
UCCAAGCAAUAUUACGAGAU	-3.54 ± 0.18	
GGAAAGCAAUAUUACGAUAA	-1.32 ± 0.14	-0.198 ± 0.16
GCUCAGCAAUAUUACGCGAA	-0.998 ± 0.11	-0.98 ± 0.12
AUGUAGCAAUAUUACGCCCC	-0.236 ± 0.22	-0.186 ± 0.3
AAGGAGCAAUAUUACGCAUU	-2.8 ± 0.15	-1.64 ± 0.16
UUGGAGCAAUAUUACGCAUU	-1.87 ± 0.33	
UCCAAGCAAUAUUACGUGAU	-3.53 ± 0.12	-1.31 ± 0.097
CGCUAGCAAUAUUACGGUCU	-1.02 ± 0.1	-0.659 ± 0.12
UAACAGCAAUAUUACGUACG	-0.675 ± 0.047	-0.193 ± 0.069
UUCUAGCAAUAUUACGACGU	-1.89 ± 0.12	-1.12 ± 0.1
AGUAAGCAAUAUUACGCGUG	-3.44 ± 0.2	-1.46 ± 0.16
GAUGAGCAAUAUUACGACUA	-1.79 ± 0.12	-0.933 ± 0.11

Sequence	self-splicing fitness (ln) (30 °C)	self-splicing fitness (ln) (37 °C)
GUUAAGCAAUAUUACGUCGC	-1.61 ± 0.21	-1.83 ± 0.28
GCUCAGCAAUAUUACGCAGA	-3.72 ± 0.2	-2.88 ± 0.2
GUUAAGCAAUAUUACGGCAU	-0.746 ± 0.12	0.0583 ± 0.18
GCUCAGCAAUAUUACGGGAU	-1.16 ± 0.097	-0.195 ± 0.11
CUUAAGCAAUAUUACGCUAC	-4.22 ± 0.42	-2.34 ± 0.36
UAAGAGCAAUAUUACGGCUG	-1.55 ± 0.12	-0.424 ± 0.18
GCGGAGCAAUAUUACGCGAG		-2.39 ± 0.36
UUUUAGCAAUAUUACGCUCA	-0.731 ± 0.29	0.849 ± 0.44
GAUGAGCAAUAUUACGCUGC		-1.25 ± 0.48
ACUCAGCAAUAUUACGGCUU	-0.0445 ± 0.067	0.494 ± 0.086
ACCUAGCAAUAUUACGUGGG	-3.54 ± 0.17	-3.4 ± 0.24
AUCAAGCAAUAUUACGGAUG	-2.01 ± 0.079	-0.664 ± 0.082
AGAGAGCAAUAUUACGGCGG	-2.77 ± 0.48	
UAAGAGCAAUAUUACGCCUA	-2.03 ± 0.15	-1.41 ± 0.12
CCUAAGCAAUAUUACGGAAU	-3.6 ± 0.25	-2.48 ± 0.19
CUUAAGCAAUAUUACGGAUU	-3.94 ± 0.32	-3.41 ± 0.47
UGUCAGCAAUAUUACGGCAU	-3.01 ± 0.15	-2.48 ± 0.23
ACAUAGCAAUAUUACGCUCC	-1.62 ± 0.17	-2.05 ± 0.23
UAAUAGCAAUAUUACGUUGG	-3.11 ± 0.13	-0.991 ± 0.11
GCUCAGCAAUAUUACGCGCG	-1.03 ± 0.071	-0.194 ± 0.091
UUUUAGCAAUAUUACGUUAU	-2.53 ± 0.25	-1.73 ± 0.35
GCACAGCAAUAUUACGCGUU	-1.29 ± 0.053	-0.545 ± 0.057
CUACAGCAAUAUUACGAUCU	-4.26 ± 0.37	-1.9 ± 0.45
UGGUAGCAAUAUUACGAUCC	-0.523 ± 0.11	-0.731 ± 0.16
AAAAAGCAAUAUUACGCACA	-0.661 ± 0.067	-0.183 ± 0.087
